Experimental data reported in article PMC10755861, “Structural analysis and functional evaluation of the disordered ß–hexosyltransferase region from Hamamotoa (Sporobolomyces) singularis” (Frontiers in Bioengineering and Biotechnology, 2023).

Key:
[1] = target: the molecule itself; assay: SEC; purified variants; single peak, retention time 12.5 min, calculated Mw 150 kDa; data not shown
[2] = target: the molecule itself; assay: SAXS; rBHT(23–594)-HIS in solution at 1 mg/mL and 4 mg/mL; molecular mass by the method of Rambo and Tainer

| Protein | stoichiometry N [1] | stoichiometry N [2] |
| --- | --- | --- |
| rBHT(54–594)-HIS, recombinant ß-hexosyltransferase from Hamamotoa (Sporobolomyces) singularis, residues 54–594 (enzyme, UniProt Q564N5 54-594, looked up, ß-hexosyltransferase (BHT, BglA) of Hamamotoa (Sporobolomyces) singularis, 594-residue polypeptide, residues 54-594; Expressed behind the MFα pre-pro leader of pPIC9 (primer encodes KR-EAEA before residue 54; leftover leader residues are a surmise); Glycosylated enzyme; also called GS115::MFα-rBht(54–594)-HIS; JB224; not shown: His6, C-terminal, kept) TGTAELDALWNLVEAQYPVQTAAVTTLVTVPDDYKFEADPPSYALAGYETSEIAGLKFPKGFKFGVAGAAIQVEGAAKAEGRGPSTWDYLCHHYASTQCNNYDPDITTNHYYLYPLDFARLQHLGINTYSFSISWTRIYPLGAGYVNEAGLAHYDAVIHSAKKYGLEPVGTVFHWDTPLSLMLKYGAWQDTGDQIVKDFVTYATTVFKRYGNEVKTWFTFNEPRVFCSQNSGLPYNLTYPEGINSTSAVFRCTYNVLKAHGHAVKVYRDLVASGTIAAGEIGFKSDDNYPIPARPGNADDEESAKRHEAFRIGIFAQPVYGNGDYPDVVKETVGDMLPALTDEDKGYIKGSGDIFAIDGYRTDISHAALNGIANCIRNQSDPNWPVCEEGSDPFAHVYPSGFAIGQSADPLSSWLVNSAPFIRDQLKFLTQTYPAKGGIYFSEFGWAEDAEYDRQLLYQITWDGLRTQYLTDYLSQLLLAVHKDGINLRGALTWSFVDNWEWGLGMQQKFGFQFVNQSDPDLTRTFKLSAHAYAQFGRNHL | 2 | – |
| rBHT(57–594)-HIS, recombinant ß-hexosyltransferase from Hamamotoa (Sporobolomyces) singularis, residues 57–594 (enzyme, UniProt Q564N5 57-594, looked up, ß-hexosyltransferase (BHT, BglA) of Hamamotoa (Sporobolomyces) singularis, 594-residue polypeptide, residues 57-594; Expressed behind the MFα pre-pro leader of pPIC9 (primer encodes KR-EAEA before residue 57; leftover leader residues are a surmise); Glycosylated enzyme; also called GS115::MFα-rBht(57–594)-HIS; JB225; not shown: His6, C-terminal, kept) AELDALWNLVEAQYPVQTAAVTTLVTVPDDYKFEADPPSYALAGYETSEIAGLKFPKGFKFGVAGAAIQVEGAAKAEGRGPSTWDYLCHHYASTQCNNYDPDITTNHYYLYPLDFARLQHLGINTYSFSISWTRIYPLGAGYVNEAGLAHYDAVIHSAKKYGLEPVGTVFHWDTPLSLMLKYGAWQDTGDQIVKDFVTYATTVFKRYGNEVKTWFTFNEPRVFCSQNSGLPYNLTYPEGINSTSAVFRCTYNVLKAHGHAVKVYRDLVASGTIAAGEIGFKSDDNYPIPARPGNADDEESAKRHEAFRIGIFAQPVYGNGDYPDVVKETVGDMLPALTDEDKGYIKGSGDIFAIDGYRTDISHAALNGIANCIRNQSDPNWPVCEEGSDPFAHVYPSGFAIGQSADPLSSWLVNSAPFIRDQLKFLTQTYPAKGGIYFSEFGWAEDAEYDRQLLYQITWDGLRTQYLTDYLSQLLLAVHKDGINLRGALTWSFVDNWEWGLGMQQKFGFQFVNQSDPDLTRTFKLSAHAYAQFGRNHL | 2 | – |
| rBHT(23–594)-HIS, recombinant ß-hexosyltransferase from Hamamotoa (Sporobolomyces) singularis, residues 23–594 (enzyme, UniProt Q564N5 23-594, looked up, N-glycosylation sites N289, N297, N431, N569 (NAG in the crystal structure); phosphorylation sites found in the crystal structure: T56, T74, T79, Expressed behind the S. cerevisiae alpha factor pre-pro leader (MFα) of pPIC9; the forward primer encodes KR-EAEA before residue 23, so some leader residues (EAEA) may be left on the N-terminus after processing (surmise); Residues 23-53 lack electron density in PDB 7L74; also called rBHT(23–594)-6XHIS; BglA; source: K. phaffii GS115, secreted into the culture medium, purified (HISTrap HP Nickel …)) VTYPGAIPLSLTSNYETPSPTAIPLEPTPTATGTAELDALWNLVEAQYPVQTAAVTTLVTVPDDYKFEADPPSYALAGYETSEIAGLKFPKGFKFGVAGAAIQVEGAAKAEGRGPSTWDYLCHHYASTQCNNYDPDITTNHYYLYPLDFARLQHLGINTYSFSISWTRIYPLGAGYVNEAGLAHYDAVIHSAKKYGLEPVGTVFHWDTPLSLMLKYGAWQDTGDQIVKDFVTYATTVFKRYGNEVKTWFTFNEPRVFCSQNSGLPYNLTYPEGINSTSAVFRCTYNVLKAHGHAVKVYRDLVASGTIAAGEIGFKSDDNYPIPARPGNADDEESAKRHEAFRIGIFAQPVYGNGDYPDVVKETVGDMLPALTDEDKGYIKGSGDIFAIDGYRTDISHAALNGIANCIRNQSDPNWPVCEEGSDPFAHVYPSGFAIGQSADPLSSWLVNSAPFIRDQLKFLTQTYPAKGGIYFSEFGWAEDAEYDRQLLYQITWDGLRTQYLTDYLSQLLLAVHKDGINLRGALTWSFVDNWEWGLGMQQKFGFQFVNQSDPDLTRTFKLSAHAYAQFGRNHL | – | 2 |
| rBHT(32–594)-HIS, recombinant ß-hexosyltransferase from Hamamotoa (Sporobolomyces) singularis, residues 32–594 (enzyme, UniProt Q564N5 32-594, looked up, ß-hexosyltransferase (BHT, BglA) of Hamamotoa (Sporobolomyces) singularis, 594-residue polypeptide, residues 32-594; Expressed behind the MFα pre-pro leader of pPIC9 (primer encodes KR-EAEA before residue 32; leftover leader residues are a surmise); Glycosylated enzyme; also called GS115::MFα-rBht(32–594)-HIS; JB223; not shown: His6, C-terminal, kept) SLTSNYETPSPTAIPLEPTPTATGTAELDALWNLVEAQYPVQTAAVTTLVTVPDDYKFEADPPSYALAGYETSEIAGLKFPKGFKFGVAGAAIQVEGAAKAEGRGPSTWDYLCHHYASTQCNNYDPDITTNHYYLYPLDFARLQHLGINTYSFSISWTRIYPLGAGYVNEAGLAHYDAVIHSAKKYGLEPVGTVFHWDTPLSLMLKYGAWQDTGDQIVKDFVTYATTVFKRYGNEVKTWFTFNEPRVFCSQNSGLPYNLTYPEGINSTSAVFRCTYNVLKAHGHAVKVYRDLVASGTIAAGEIGFKSDDNYPIPARPGNADDEESAKRHEAFRIGIFAQPVYGNGDYPDVVKETVGDMLPALTDEDKGYIKGSGDIFAIDGYRTDISHAALNGIANCIRNQSDPNWPVCEEGSDPFAHVYPSGFAIGQSADPLSSWLVNSAPFIRDQLKFLTQTYPAKGGIYFSEFGWAEDAEYDRQLLYQITWDGLRTQYLTDYLSQLLLAVHKDGINLRGALTWSFVDNWEWGLGMQQKFGFQFVNQSDPDLTRTFKLSAHAYAQFGRNHL | 2 | – |
